{"source": "paper PMC4820748", "about": "“Structural basis for the membrane association of ankyrinG via palmitoylation” (Scientific Reports, 2016)", "proteins": {"B1": {"name": "AnkG (R1-R5), head-section of the membrane-binding domain of rat ankyrin-G (domain or fragment)", "chain": "GTKSDANASYLRAARAGHLEKALDYIKNGVDVNICNQNGLNALHLASKEGHVEVVSELLQREANVDAATKKGNTALHIASLAGQAEVVKVLVTNGANVNAQSQNGFTPLYMAAQENHLEVVRFLLDNGASQSLATEDGFTPLAVALQQGHDQVVSLLLENDTKGK", "notes": "two extra residues, Gly-Thr, left at the N-terminus after the TEV cleavage; In the oxidized form two chains are linked by a disulfide bond between the two Cys70 residues; in the reduced form Cys70 is free; also called ANK3 (R1-R5); AnkG palmitoylation domain; source: E. coli BL21(DE3)pLysS, purified (nickel column, TEV cleavage, superdex200 gel filtration); not shown: His tag, N-terminal, cleaved"}}, "target": "the molecule itself", "experiment": "crystal structure; oxidized form, C121 crystal; sitting-drop vapor diffusion at 20 °C; reservoir 10 mM MgCl2-hexahydrate, 50 mM Tris-HCl (pH 7.5), 1.6 M (NH4)2SO4; asymmetric unit holds one dimeric molecule", "data": [{"protein": "B1", "values": [{"measurement": "stoichiometry N", "value": 2}]}]}
